The text below walks through data of paper PMC6999906 (PLoS ONE, 2020).

pKi: −log10 of the molar value.

One may read the pKi as the negative decadic logarithm of the Ki, by convention in mol/L. High values mean a small Ki, low ones a large Ki. By Km is commonly meant the concentration of substrate that gives half-maximal velocity. The Vmax is the rate approached at saturating substrate.

The target in data set [1] is Mtb ThyX (thymidylate synthase ThyX) (Mycobacterium tuberculosis, UniProt P9WG57). The experiment in a line: […]; also NADPH oxidase assay (IC50 about […]). The data set is classed as biochemical.
Data set [2] concerns NC(=O)C1=CN([C@@H]2O[C@H](COP(=O)(O)OP(=O)(O)OC[C@H]3O[C@@H](n4cnc5c(N)ncnc54)[C@H](OP(=O)(O)O)[C@@H]3O)[C@@H](O)[C@H]2O)C=CC1. Kind of data set: purified protein. Conditions: FAD.
Data set [3] has as its system O=c1ccn([C@H]2C[C@H](O)[C@@H](COP(=O)(O)O)O2)c(=O)[nH]1. Kind of data set: purified protein. Conditions: FAD.
Data set [4] has as its system Nc1nc2c(c(=O)[nH]1)N1CN(c3ccc(C(=O)N[C@@H](CCC(=O)O)C(=O)O)cc3)C[C@H]1CN2. The experiment in a line: purified protein. Conditions: FAD.

Chain of Mtb ThyX (thymidylate synthase ThyX) (P9WG57 whole entry): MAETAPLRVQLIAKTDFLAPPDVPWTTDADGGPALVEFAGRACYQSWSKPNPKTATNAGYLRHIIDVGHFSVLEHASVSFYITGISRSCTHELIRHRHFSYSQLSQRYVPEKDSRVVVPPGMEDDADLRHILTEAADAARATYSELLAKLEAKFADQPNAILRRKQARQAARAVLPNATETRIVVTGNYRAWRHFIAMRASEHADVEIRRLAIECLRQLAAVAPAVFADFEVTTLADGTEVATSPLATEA

In data set [1], `CC1=CC(=O)c2c(O)cccc2C1=O` [plumbagin, 5-hydroxy-2-methyl-1,4-naphthoquinone] had a negative-log Ki (pKi) of 5.09.
As for “Mtb ThyX (thymidylate synthase ThyX) (Mycobacterium tuberculosis H37Rv)”, the Km in data set [2] was 35.22 µM; in data set [3], 3.526 ± 0.68 µM; in data set [4] it was 6.467 µM. In addition, the Vmax in data set [2] amounted to 0.00323 µmol/min/mg; in data set [3] it was 0.00695 µmol/min/mg; in data set [4] it was 0.00228 µmol/min/mg.
